No end group written: not given here.
B1: SHANK1 PDZ domain (654-763) (domain or fragment, UniProt Q9Y566 654-763, looked up)
chain: GSDYIIKEKTVLLQKKDSEGFGFVLRGAKAQTPIEEFTPTPAFPALQYLESVDEGGVAWRAGLRMGDFLIEVNGQNVVKVGHRQVVNMIRQGGNTLMVKVVMVTRHPDMD
notes: source: E. coli, purified analogous to SNX27PDZ (pOPIN-S vector)
B2: SHANK2 PDZ domain (239-347) (domain or fragment)
chain: SDCIIEEKTVVLQKKDNEGFGFVLRGAKADTPIEEFTPTPAFPALQYLESVDEGGVAWQAGLRTGDFLIEVNNENVVKVGHRQVVNMIRQGGNHLVLKVVTVTRNLDPD
modifications: Printed 239-347 follows the older 1470-aa Q9UPX8 numbering; offset +379 to the current 1849-aa entry, so that the start falls on SDCIIEEKTV. The His6-SUMO tag was cleaved off.
B3: SHANK3 PDZ domain (563-671) (domain or fragment)
chain: SDYVIDDKVAVLQKRDHEGFGFVLRGAKAETPIEEFTPTPAFPALQYLESVDVEGVAWRAGLRTGDFLIEVNGVNVVKVGHKQVVALIRQGGNRLVMKVVSVTRKPEED
modifications: Printed 563-671 follows the older 1731-aa SHANK3 numbering; offset +75 to the current 1806-aa entry (inferred by homology to the SHANK2 start, 8 residues before the annotated PDZ). The His6-SUMO tag …
B4: RhoGEF PDZ domain (41-123) (domain or fragment, UniProt O15085 41-123, looked up)
chain: TGLVQRCVIIQKDQHGFGFTVSGDRIVLVQSVRPGGAAMKAGVKEGDRIIKVNGTMVTNSSHLEVVKLIKSGAYVALTLLGSS
notes: RhoGEF, PDZ domain, residues 41-123; The printed DNA (249 nt) fits 83 residues; source: E. coli, purified analogous to SNX27PDZ (pOPIN-S vector)
B5: PSD95 PDZ2 (155-249) (domain or fragment, UniProt P78352 155-249, looked up)
chain: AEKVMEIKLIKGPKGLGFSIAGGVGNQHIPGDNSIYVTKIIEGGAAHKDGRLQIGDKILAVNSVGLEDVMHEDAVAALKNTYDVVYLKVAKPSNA
notes: PSD95, second PDZ domain, residues 155-249; The printed DNA (285 nt) fits 95 residues; source: E. coli, purified analogous to SNX27PDZ (pOPIN-S vector)
B6: NHERF1 PDZ2 (150-235) (domain or fragment, UniProt O14745 150-235, looked up)
chain: LRPRLCTMKKGPSGYGFNLHSDKSKPGQFIRSVDPDSPAEASGLRAQDRIVEVNGVCMEGKQHGDVVSAIRAGGDETKLLVVDRET
notes: The printed DNA (258 nt) fits 86 residues; source: E. coli, purified analogous to SNX27PDZ (pOPIN-S vector)
B7: Syntenin1 PDZ1 (108-196) (domain or fragment, UniProt Q9JI92 108-196, looked up)
chain: AEIKQGIREVILCKDQDGKIGLRLKSVDNGIFVQLVQANSPASLVGLRFGDQVLQINGENCAGWSSDKAHKVLKQAFGEKITMTIRDRP
notes: Syntenin-1, first PDZ domain, residues 108-196; The printed DNA (267 nt) fits 89 residues; source: E. coli, purified analogous to SNX27PDZ (pOPIN-S vector)
B8: LNX2 PDZ3 (465-560) (domain or fragment, UniProt Q8N448 465-560, looked up)
chain: QEKHITVKKEPHESLGMTVAGGRGSKSGELPIFVTSVPPHGCLARDGRIKRGDVLLNINGIDLTNLSHSEAVAMLKASAASPAVALKALEVQIVEE
notes: LNX2, third PDZ domain, residues 465-560; The printed DNA (288 nt) fits 96 residues; source: E. coli, purified analogous to SNX27PDZ (pOPIN-S vector)
B9: OTULIN C-terminal PDZbm peptide (aa 344-352) (peptide)
peptide: Ac-VRVCEETSL
notes: OTULIN, human, C-terminal PDZbm peptide, aa 344-352; also called OTULIN PDZbm peptide
B10: OTULIN C-terminal PDZbm peptide (aa 344–352) (peptide, UniProt Q96BN8 344-352, looked up)
peptide: VRVCEETSL
notes: OTULIN, human, aa 344–352; also called OTULIN PDZbm peptide
B11: Syntenin1 PDZ1 (domain or fragment, UniProt O00560 114-193, looked up)
chain: EVILCKDQDGKIGLRLKSIDNGIFVQLVQANSPASLVGLRFGDQVLQINGENCAGWSSDKAHKVLKQAFGEKITMTIRDR
notes: Syntenin1, PDZ1; source: expressed and purified analogous to SNX27PDZ (E. coli Rosetta2 (DE3) pLacI); His6-SUMO cleaved with SUMO protease

Columns and labels:
Conditions in all cases: both partners purified
OTULINcat (aa 80-352) [1] = target: T1, OTULINcat (aa 80-352) (human, UniProt Q96BN8 80-352); experiment: ITC; SHANK1-3 PDZ in the syringe, OTULINcat in the cell; 30 °C; 20 mM HEPES pH 7.4, 200 mM NaCl, 2 mM TCEP; single-site binding model
OTULINcat (aa 80-352) [2] = target: T1, OTULINcat (aa 80-352); experiment: ITC; PDZ variant (150-450 µM) in the syringe, OTULINcat variant (20-30 µM) in the cell; 25 °C; 20 mM HEPES pH 7.4, 200 mM NaCl, 2 mM TCEP; single-site binding model
[3] = target: SNX27 PDZ domain (aa 40-135) (human, UniProt Q96L92 40-135); experiment: ITC; SNX27PDZ in the cell; OTULINcat, OTULIN PDZbm peptide or VPS26A in the syringe; 25 °C; 20 mM HEPES pH 7.4, 200 mM NaCl, 2 mM TCEP; single-site binding model
SNX27PDZ (aa 40–135) = SNX27PDZ (aa 40–135) (human, UniProt Q96L92 40-135); experiment: ITC; 25 °C, 20 mM HEPES pH 7.4, 200 mM NaCl, 2 mM TCEP; 20–30 µM OTULINcat variant in the cell, 150–450 µM PDZ variant in the syringe; single-site model
OTULINcat (aa 80–352) = target: T2, OTULINcat (aa 80–352) (human, UniProt Q96BN8 80-352); experiment: as above
T2 construct: OTULIN, human, aa 80–352; His6-3C construct in pOPIN-B; tag cleaved with 3C protease; source: E. coli Rosetta2 (DE3) pLacI, purified (HisTrap, anion exchange, SEC)
T2 sequence (Q96BN8 80-352): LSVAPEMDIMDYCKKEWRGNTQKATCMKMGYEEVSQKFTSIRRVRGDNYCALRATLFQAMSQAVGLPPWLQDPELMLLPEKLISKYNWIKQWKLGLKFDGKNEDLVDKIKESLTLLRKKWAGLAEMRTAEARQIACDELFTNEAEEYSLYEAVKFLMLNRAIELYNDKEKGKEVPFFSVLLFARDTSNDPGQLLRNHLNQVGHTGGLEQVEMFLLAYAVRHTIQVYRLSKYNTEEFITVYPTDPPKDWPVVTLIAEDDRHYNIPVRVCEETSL

T1 sequence (Q96BN8 80-352): as above

Binder	Kd (OTULINcat (aa 80-352) [2])	stoichiometry N (OTULINcat (aa 80-352) [2])	also measured
B1			Kd (OTULINcat (aa 80-352) [1]): 22.6 µM; stoichiometry N (OTULINcat (aa 80-352) [1]): 1
B2			Kd (OTULINcat (aa 80-352) [1]): 23.9 µM; stoichiometry N (OTULINcat (aa 80-352) [1]): 0.99
B3			Kd (OTULINcat (aa 80-352) [1]): 26.4 µM; stoichiometry N (OTULINcat (aa 80-352) [1]): 1
B4	38.3 µM	0.96	
B5	98.9 µM	0.91	
B6	35.6 µM	1.14	
B7		0.38	
B8	57.1 µM	0.87	
B9			stoichiometry N [3]: 1.07
B10			Kd (SNX27PDZ (aa 40–135)): 1.1 µM
B11			Kd (OTULINcat (aa 80–352)): 1710 µM

— PMC6754446, “Regulation of the endosomal SNX27-retromer by OTULIN” (Nature Communications, 2019)
